In the Human Domainome abundance scans (Beltran et al. 2025):
± gives the uncertainty stated by the source.

B1: Pituitary-specific positive transcription factor 1, residues 130 to 198; numbered along this chain, P28069 (parent)
chain: RELEKFANEFKVRRIKLGYTQTNVGEALAAVHGSEFSQTTICRFENLQLSFKNACKLKAILSKWLEEAE

Variants of: B1
Experiment: abundance fitness (aPCA) (normalised: wild type 0, dead -1); higher = more abundant; growth selection in yeast, the domain comes from the species named
Settings: Homo sapiens
For RELEKFANEFKVRRIKLGYTQTNVGEALAAVHGSEFSQTTICRFENLQLSFKNACKLKAILSCWLEEAE [K63C], the abundance fitness was -0.443 ± 0.098.
Work on RELEKFANEFKVRRIKLGYTQTNVGEALAAVHGSEFSQTTICRFENLQLSFKNACKLKAILSHWLEEAE [K63H] yielded an abundance fitness of 0.039 ± 0.2.
For RELEKFANEFKVRRIKLGYTQTNVGEALAAVHGSEFSQTTICRFENLQLSFKNACKLKAILSDWLEEAE [K63D], the abundance fitness was 0.112 ± 0.077.
Work on RELEKFANEFKVRRIKLGYTQTNVGEALAAVHGSEFSQTTICRFENLQLSFKNACKLKAILSGWLEEAE [K63G] yielded an abundance fitness of -0.153 ± 0.059.
In the case of RELEKFANEFKVRRIKLGYTQTNVGEALAAVHGSEFSQTTICRFENLQLSFKNACKLKAILSAWLEEAE [K63A], the abundance fitness is reported as 0.025 ± 0.061.
Variant RELEKFANEFKVRRIKLGYTQTNVGEALAAVHGSEFSQTTICRFENLQLSFKNACKLKAILSEWLEEAE [K63E] has an abundance fitness of 0.077 ± 0.065.
In the case of RELEKFANEFKVRRIKLGYTQTNVGEALAAVHGSEFSQTTICRFENLQLSFKNACKLKAILSFWLEEAE [K63F], the abundance fitness is reported as -0.799 ± 0.16.
Variant RELEKFANEFKVRRIKLGYTQTNVGEALAAVHGSEFSQTTICRFENLQLSFKNACKLSAILSKWLEEAE [K58S] has an abundance fitness of -0.58 ± 0.069.
Work on RELEKFANEFKVRRIKLGYTQTNVGEALAAVHGSEFSQTTICRFENLQLSFKNACKLWAILSKWLEEAE [K58W] yielded an abundance fitness of -0.342 ± 0.11.
RELEKFANEFKVRRIKLGYTQTNVGEALAAVHGSEFSQTTICRFENLQLSFKNACKLYAILSKWLEEAE [K58Y] showed an abundance fitness of -0.511 ± 0.098.
Work on RELEKFANEFKVRRIKLGYTQTNVGEALAAVHGSEFSQTTICRFENLQLSFKNACKLTAILSKWLEEAE [K58T] yielded an abundance fitness of -0.477 ± 0.072.
With RELEKFANEFKVRRIKLGYTQTNVGEALAAVHGSEFSQTTICRFENLQLSFKNACKLKAILAKWLEEAE [S62A] the abundance fitness was -0.015 ± 0.072.
For RELEKFANEFKVRRIKLGYTQTNVGEALAAVHGSEFSQTTICRFENLQLSFKNACKLKAILQKWLEEAE [S62Q], the abundance fitness was 0.047 ± 0.066.
With RELEKFANEFKVRRIKLGYTQTNVGEALAAVHGSEFSQTTICRFENLQLSFKNACKLKAILWKWLEEAE [S62W] the abundance fitness was -0.009 ± 0.053.
With RELEKFANEFKVRRIKLGYTQTNVGEALAAVHGSEFSQTTICRFENLQLSFKNACKLKAILCKWLEEAE [S62C] the abundance fitness was -0.3 ± 0.062.
For RELEKFANEFKVRRIKLGYTQTNVGEALAAVHGSEFSQTTICRFENLQLSFKNACKLKAILLKWLEEAE [S62L], the abundance fitness was -0.144 ± 0.055.
RELEKFANEFKVRRIKLGYTQTNVGEALAAVHGSEFSQTTICRFENLQLSFKNACKLKAILVKWLEEAE [S62V] gave an abundance fitness of -0.167 ± 0.064.
RELEKFANEFKVRRIKLGYTQTNVGEALAAVHGSEFSQTTICRFENLQLSFKNACKLKAILFKWLEEAE [S62F] gave an abundance fitness of -0.059 ± 0.056.
Variant RELEKFANEFKVRRIKLGYTQTNVGEALAAVHGSEFSQTTICRFENLQLSFKNACKLKAILEKWLEEAE [S62E] has an abundance fitness of 0.016 ± 0.087.
For RELEKFANEFKVRRIKLGYTQTNVGEALAAVHGSEFSQTTICRFENLQLSFKNACKLKAILYKWLEEAE [S62Y], the abundance fitness was -0.585 ± 0.17.
Work on RELEKFANEFKVRRIKLGYTQTNVGEALAAVHGSEFSQTTICRFENLQLSFKNACKLKAILIKWLEEAE [S62I] yielded an abundance fitness of 0.001 ± 0.081.
Variant RELEKFANEFKVRRIKLGYTQTNVGEALAAVHGSEFSQTTICRFENLQLSFKNACKLKAILPKWLEEAE [S62P] has an abundance fitness of -0.909 ± 0.27.
For RELEKFANEFKVRRIKLGYTQTNVGEALAAVHGSEFSQTTICRFENLQLSFKNACKLKAILHKWLEEAE [S62H], the abundance fitness was -0.127 ± 0.12.
For RELEKFANEFKVRRIKLGYTQTNVGEALAAVHGSEFSQTTICRFENLQLSFKNACKLKAILKKWLEEAE [S62K], the abundance fitness was -0.3 ± 0.12.
RELEKFANEFKVRRIKLGYTQTNVGEALAAVHGSEFSQTTICRFENLQLSFKNACKLKAILNKWLEEAE [S62N] gave an abundance fitness of -0.438 ± 0.088.
Variant RELEKFANEFKVRRIKLGYTQTNVGEALAAVHGSEFSQTTICRFENLQLSFKNACKLKAILGKWLEEAE [S62G] has an abundance fitness of -0.239 ± 0.11.
In the case of RELEKFANEFKVRRIKLGYTQTNVGEALAAVHGSEFSQTTICRFENLQLSFKNACKLKAILRKWLEEAE [S62R], the abundance fitness is reported as -0.377 ± 0.071.
Work on RELEKFANEFKVRRIKLGYTQTNVGEALAAVHGSEFSQTTICRFENLQLSFKNACKLKAILTKWLEEAE [S62T] yielded an abundance fitness of 0.014 ± 0.07.
For RELEKFANEFKVRRIKLGYTQTNVGEALAAVHGSEFSQTTICRFENLQLSFKNACKLKAMLSKWLEEAE [I60M], the abundance fitness was -0.239 ± 0.079.
In the case of RELEKFANEFKVRRIKLGYTQTNVGEALAAVHGSEFSQTTICRFENLQLSFKNACKLKAELSKWLEEAE [I60E], the abundance fitness is reported as -0.567 ± 0.21.
RELEKFANEFKVRRIKLGYTQTNVGEALAAVHGSEFSQTTICRFENLQLSFKNACKLKAALSKWLEEAE [I60A] gave an abundance fitness of -0.281 ± 0.073.
Variant RELEKFANEFKVRRIKLGYTQTNVGEALAAVHGSEFSQTTICRFENLQLSFKNACKLKAFLSKWLEEAE [I60F] has an abundance fitness of -0.725 ± 0.22.
RELEKFANEFKVRRIKLGYTQTNVGEALAAVHGSEFSQTTICRFENLQLSFKNACKLKAGLSKWLEEAE [I60G] showed an abundance fitness of -0.495 ± 0.091.
In the case of RELEKFANEFKVRRIKLGYTQTNVGEALAAVHGSEFSQTTICRFENLQLSFKNACKLKAPLSKWLEEAE [I60P], the abundance fitness is reported as -0.2 ± 0.08.
RELEKFANEFKVRRIKLGYTQTNVGEALAAVHGSEFSQTTICRFENLQLSFKNACKLKASLSKWLEEAE [I60S] showed an abundance fitness of -0.568 ± 0.099.
Work on RELEKFANEFKVRRIKLGYTQTNVGEALAAVHGSEFSQTTICRFENLQLSFKNACKLKANLSKWLEEAE [I60N] yielded an abundance fitness of -0.357 ± 0.14.
Variant RELEKFANEFKVRRIKLGYTQTNVGEALAAVHGSEFSQTTICRFENLQLSFKNACKLKAVLSKWLEEAE [I60V] has an abundance fitness of -0.024 ± 0.084.
Variant RELEKFANEFKVRRIKLGYTQTNVGEALAAVHGSEFSQTTICRFENLQLSFKNACKLKAQLSKWLEEAE [I60Q] has an abundance fitness of -0.559 ± 0.18.
In the case of RELEKFANEFKVRRIKLGYTQTNVGEALAAVHGSEFSQTTICRFENLQLSFKNACKLKADLSKWLEEAE [I60D], the abundance fitness is reported as -0.343 ± 0.11.
